Experimental data taken from US20050095604A1 (published 2005).

Target: T1, endogenous beta-catenin of human HEK293 cells (human, UniProt P35222 2-781)
T1 construct: also called β-catenin
T1 sequence (looked up): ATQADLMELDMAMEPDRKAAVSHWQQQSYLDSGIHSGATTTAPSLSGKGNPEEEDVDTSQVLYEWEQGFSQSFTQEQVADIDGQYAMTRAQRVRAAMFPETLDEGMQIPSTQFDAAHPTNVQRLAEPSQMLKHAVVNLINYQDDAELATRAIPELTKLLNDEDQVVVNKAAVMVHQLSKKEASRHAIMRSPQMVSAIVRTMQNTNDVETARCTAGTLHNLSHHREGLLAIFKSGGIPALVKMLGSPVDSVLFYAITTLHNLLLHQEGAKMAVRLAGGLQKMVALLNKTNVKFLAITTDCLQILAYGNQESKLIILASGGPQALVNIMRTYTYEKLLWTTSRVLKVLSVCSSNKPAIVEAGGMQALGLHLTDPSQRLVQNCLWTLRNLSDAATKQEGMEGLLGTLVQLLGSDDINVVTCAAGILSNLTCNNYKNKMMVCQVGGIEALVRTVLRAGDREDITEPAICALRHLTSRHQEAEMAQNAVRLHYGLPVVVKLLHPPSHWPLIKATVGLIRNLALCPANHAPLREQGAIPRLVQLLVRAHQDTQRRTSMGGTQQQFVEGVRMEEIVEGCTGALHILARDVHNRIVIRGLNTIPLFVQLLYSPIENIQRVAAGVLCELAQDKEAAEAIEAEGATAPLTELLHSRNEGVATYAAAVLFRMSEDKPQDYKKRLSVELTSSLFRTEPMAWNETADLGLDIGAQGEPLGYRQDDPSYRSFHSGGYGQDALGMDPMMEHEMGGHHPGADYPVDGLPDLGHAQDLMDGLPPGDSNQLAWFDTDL
Test: Talon cobalt-affinity isolation of His-tagged hPSF from 1% CHAPSO lysates of stable HEK293 cells, Western blot

B1: human presenilin stabilization factor (PSF) with C-terminal V5 and poly-histidine (6xHis) tags (other, not shown: small tags and cut ends)
chain: MGAAVFFGCTFVAFGPAFALFLITVAGDPLRVIILVAGAFFWLVSLLLASVVWFILVHVTDRSDARLQYGLLIFGAAVSVLLQEVFRFAYYKLLKKADEGLASLSEDGRSPISIRQMAYVSGLSFGIISGVFSVINILADALGPGVVGIHGDSPYYFLTSAFLTAAIILLHTFWGVVFFDACERRRYWALGLVVGSHLLTSGLTFLNPWYEASLLPIYAVTVSMGLWAFITAGGSLRSIQRSSCVRTDYLD
notes: Stably expressed in HEK293 (APP-695) cells (clonal line 2-7), solubilised in 1% CHAPSO and captured on Talon cobalt resin; Both the full-length (~25 kDa) and the processed (~15 kDa) forms were isolated; also called hPSF; PSF-V5
binding result: no binding
